{
  "source": "paper doi:10.1101/2021.04.21.440798",
  "about": "(bioRxiv, 2021)",
  "biological_target": "GFP-T6BP (TAX1BP1 / TRAF6-Binding Protein fused to GFP) (UniProt Q86VP1 1-789)",
  "sequence (Q86VP1 whole entry, the tested form may be a part)": "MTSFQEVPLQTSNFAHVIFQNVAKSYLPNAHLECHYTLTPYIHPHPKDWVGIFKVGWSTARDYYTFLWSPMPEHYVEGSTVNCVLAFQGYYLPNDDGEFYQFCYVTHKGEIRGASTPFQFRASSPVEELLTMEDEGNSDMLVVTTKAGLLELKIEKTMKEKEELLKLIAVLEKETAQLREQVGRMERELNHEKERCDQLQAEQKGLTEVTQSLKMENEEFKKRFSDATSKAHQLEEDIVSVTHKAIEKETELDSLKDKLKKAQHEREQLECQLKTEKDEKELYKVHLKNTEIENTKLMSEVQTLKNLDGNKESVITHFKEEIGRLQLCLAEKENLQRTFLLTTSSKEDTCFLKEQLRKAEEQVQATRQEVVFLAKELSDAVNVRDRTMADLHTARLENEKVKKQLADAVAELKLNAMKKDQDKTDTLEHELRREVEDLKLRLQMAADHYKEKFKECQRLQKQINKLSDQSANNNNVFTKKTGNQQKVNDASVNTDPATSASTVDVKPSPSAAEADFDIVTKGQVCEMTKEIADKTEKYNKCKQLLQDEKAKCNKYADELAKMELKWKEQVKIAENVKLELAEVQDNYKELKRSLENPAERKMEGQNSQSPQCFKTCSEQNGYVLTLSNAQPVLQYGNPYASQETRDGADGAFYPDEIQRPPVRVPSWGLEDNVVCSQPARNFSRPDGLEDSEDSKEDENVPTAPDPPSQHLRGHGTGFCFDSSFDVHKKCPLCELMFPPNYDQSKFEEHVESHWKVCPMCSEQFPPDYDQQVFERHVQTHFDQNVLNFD",
  "experiment": "co-IP",
  "data": [
    {"binder": "Calnexin (CANX), endogenous (natural protein) HDGHDDDVIDIEDDLDDVIEEVEDSKPDTTAPPSSPKVTYKAPVPTGEVYFADSFDRGTLSGWILSKAKKDDTDDEIAKYDGKWEVEEMKESKLPGDKGLVLMSRAKHHAISAKLNKPFLFDTKPLIVQYEVNFQNGIECGGAYVKLLSKTPELNLDQFHDKTPYTIMFGPDKCGEDYKLHFIFRHKNPKTGIYEEKHAKRPDADLKTYFTDKKTHLYTLILNPDNSFEILVDQSVVNSGNLLNDMTPPVNPSREIEDPEDRKPEDWDERPKIPDPEAVKPDDWDEDAPAKIPDEEATKPEGWLDDEPEYVPDPDAEKPEDWDEDMDGEWEAPQIANPRCESAPGCGVWQRPVIDNPNYKGKWKPPMIDNPSYQGIWKPRKIPNPDFFEDLEPFRMTPFSAIGLELWSMTSDIFFDNFIICADRRIVDDWANDGWGLKKAADGAAEPGVVGQMIEAAEERPWLWVVYILTVALPVFLVILFCCSGKKQTSGMEYKKTDAPQPDVKEEEEEKEEEKDKGDEEEEGEEKLEEKQKSDAEEDGGTVSQEEEDRKPKAEEDEILNRSPRNRKPRRE", "values": [
      {"measurement": "fold enrichment over the GFP control", "result": 3, "unit": "fold"}
    ]}
  ]
}
